Starred links: 1 amine or outer side, 2 acyl side, 3 side chain; linkers in the order of their positions; H or OH if unused. Positions of bridges follow the written chain, without caps; N, C: chain ends. Non-standard residues stand in square brackets, D forms with d. Primed or numbered codes have the meaning given here. B5(11) = 2,2-bis(4-pentenyl)glycine = 2-amino-2-(pent-4-en-1-yl)hept-6-enoic acid (stitching residue, bears both staples), C=CCCCC(CCCC=C)(N[*:1])C(=O)[*:2]; B5(4) = 2,2-bis(4-pentenyl)glycine = 2-amino-2-(pent-4-en-1-yl)hept-6-enoic acid (stitching residue), C=CCCCC(CCCC=C)(N[*:1])C(=O)[*:2]; B5(14) = 2-amino-2-(pent-4-en-1-yl)hept-6-enoic acid (bis-pentenylglycine), C=CCCCC(CCCC=C)(N[*:1])C(=O)[*:2]; Phe(3-Cl) = N[C@@H](Cc1cccc(Cl)c1)C(=O)O; Phe(4-Cl) = N[C@@H](Cc1ccc(Cl)cc1)C(=O)O; Phe(4-NH2) = Nc1ccc(C[C@H](N)C(=O)O)cc1; Ala(2-furyl) = N[C@@H](Cc1ccco1)C(=O)O; His(τ-Me) = Cn1cnc(C[C@H](N)C(=O)O)c1; αAllylPro = C=CC[C@@]1(C(=O)O)CCCN1; 3Thi = N[C@@H](Cc1ccsc1)C(=O)O; S8 = C=CCCCCCC[C@](C)(N)C(=O)O
Molecular target: T1, full-length beta-Catenin (Uniprot ID P35222) (Homo sapiens (Human), UniProt P35222 1-781)
T1 construct: the AlphaScreen used a Histidine (Nickel Chelate) detection kit, so a His tag is likely but not described; also called B-Catenin; bCat
T1 sequence: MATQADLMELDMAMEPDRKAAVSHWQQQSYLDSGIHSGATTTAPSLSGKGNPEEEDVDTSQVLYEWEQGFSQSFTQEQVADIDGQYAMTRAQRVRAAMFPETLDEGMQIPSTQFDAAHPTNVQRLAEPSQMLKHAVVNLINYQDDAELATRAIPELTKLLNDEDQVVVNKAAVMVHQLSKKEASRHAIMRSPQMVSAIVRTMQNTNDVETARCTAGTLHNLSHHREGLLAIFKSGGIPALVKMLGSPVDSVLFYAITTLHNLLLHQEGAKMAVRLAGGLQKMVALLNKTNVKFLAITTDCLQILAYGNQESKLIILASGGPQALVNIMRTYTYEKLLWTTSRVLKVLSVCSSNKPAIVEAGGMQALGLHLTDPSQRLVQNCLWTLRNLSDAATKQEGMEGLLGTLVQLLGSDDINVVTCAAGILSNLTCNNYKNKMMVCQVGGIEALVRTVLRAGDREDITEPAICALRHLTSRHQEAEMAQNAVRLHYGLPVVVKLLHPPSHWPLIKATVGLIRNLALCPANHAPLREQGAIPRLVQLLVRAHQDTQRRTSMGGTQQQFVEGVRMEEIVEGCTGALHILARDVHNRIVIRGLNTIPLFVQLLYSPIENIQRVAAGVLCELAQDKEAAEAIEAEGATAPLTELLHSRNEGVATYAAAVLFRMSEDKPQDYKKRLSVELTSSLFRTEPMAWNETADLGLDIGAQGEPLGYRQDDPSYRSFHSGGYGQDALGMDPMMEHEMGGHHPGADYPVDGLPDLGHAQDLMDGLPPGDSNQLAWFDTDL
Assay: FP competition vs 5FAM-TCF4(10-53) probe on full-length beta-catenin
Experimental: The plate was incubated protected from light for 60 minutes at 20° C. prior to read. Reads were performed on a CLARIOstar plate reader (BMG Labtech) in duplicate, and data were fitted to a 1:1 binding model with hill slope using an in-house script. All provided concentrations are final concentrations.

Row | EC50 | Binder
1 | 1.75 µM | Ac-[αAllylPro]DA[B5(4)]DDAA[3Thi]V[S8]FWQ-NH2 (staple 1-4, 4-11, Ac-PL3-Asp-Ala-B5-Asp-Asp-Ala-Ala-3Thi-Val-S8-Phe-Trp-Gln-NH2; stapled peptide composition) [I-326]
2 | 5 µM | Ac-[αAllylPro]DA[B5(4)]DDAA[Phe(4-Cl)]V[S8]FWQ-NH2 (staple 1-4, 4-11; not fully specified; printed as Ac-PL3-Asp-Ala-B5-Asp-Asp-Ala-Ala-4C1F-Val-S8-Phe-Trp-Gln-NH2, Ac-PL3-Asp-Ala-B5-Asp-Asp-Ala-Ala-4C1F-Val-S8-Phe-Trp-Gln-NH2; stapled peptide composition) [I-308]
3 | 5 µM | Ac-[αAllylPro]DA[B5(4)]DDAA[Phe(3-Cl)]V[S8]FWQ-NH2 (staple 1-4, 4-11, Ac-PL3-Asp-Ala-B5-Asp-Asp-Ala-Ala-3C1F-Val-S8-Phe-Trp-Gln-NH2; stapled peptide composition) [I-306]
4 | 5 µM | Ac-[αAllylPro]DA[B5(4)]DHAAFV[S8]FWQ-NH2 (staple 1-4, 4-11, Ac-PL3-Asp-Ala-B5-Asp-His-Ala-Ala-Phe-Val-S8-Phe-Trp-Gln-NH2; stapled peptide composition) [I-304]
5 | 5 µM | Ac-[αAllylPro]DA[B5(4)]DDAA[His(τ-Me)]V[S8]FWQ-NH2 (staple 1-4, 4-11, Ac-PL3-Asp-Ala-B5-Asp-Asp-Ala-Ala-1meH-Val-S8-Phe-Trp-Gln-NH2; stapled peptide composition) [I-330]
6 | 5 µM | Ac-[αAllylPro]DA[B5(14)]DDAAHV[S8]FWQ-NH2 (staple 1-4, 4-11; not fully specified (residue 9), Ac-PL3-Asp-Ala-B5-Asp-Asp-Ala-Ala-3meH-Val-S8-Phe-Trp-Gln-NH2; stapled peptide composition) [I-331]
7 | 5 µM | Ac-[αAllylPro]DA[B5(4)]DDAA[His(τ-Me)]V[S8]FWQ-NH2 (staple 1-4, 4-11; not fully specified; printed as Ac-PL3-Asp-Ala-B5-Asp-Asp-Ala-Ala-1meH-Val-S8-Phe-Trp-Gln-NH2, Ac-PL3-Asp-Ala-B5-Asp-Asp-Ala-Ala-1meH-Val-S8-Phe-Trp-Gln-NH2; stapled peptide composition) [I-329]
8 | 3.98 µM | Ac-[αAllylPro]DA[B5(4)]DHAAFV[S8]FWQ-NH2 (staple 1-4, 4-11, Ac-PL3-Asp-Ala-B5-Asp-His-Ala-Ala-Phe-Val-S8-Phe-Trp-Gln-NH2; stapled peptide composition) [I-305]
9 | 1.91 µM | Ac-[αAllylPro]DA[B5(4)]DDAA[Ala(2-furyl)]V[S8]FWQ-NH2 (staple 1-4, 4-11; not fully specified; printed as Ac-PL3-Asp-Ala-B5-Asp-Asp-Ala-Ala-2FurA-Val-S8-Phe-Trp-Gln-NH2, Ac-PL3-Asp-Ala-B5-Asp-Asp-Ala-Ala-2FurA-Val-S8-Phe-Trp-Gln-NH2; stapled peptide composition) [I-328]
10 | 3.47 µM | Ac-[αAllylPro]DA[B5(11)]DDAA[Phe(4-NH2)]V[S8]FWQ-NH2 (staple 1-4, 4-11; not fully specified; printed as Ac-PL3-Asp-Ala-B5-Asp-Asp-Ala-Ala-4AmPhe-Val-S8-Phe-Trp-Gln-NH2, Ac-PL3-Asp-Ala-B5-Asp-Asp-Ala-Ala-4AmPhe-Val-S8-Phe-Trp-Gln-NH2; stapled peptide composition) [I-323]
11 | 4.2 µM | Ac-[αAllylPro]DA[B5(4)]DDAA[Phe(3-Cl)]V[S8]FWQ-NH2 (staple 1-4, 4-11; not fully specified; printed as Ac-PL3-Asp-Ala-B5-Asp-Asp-Ala-Ala-3C1F-Val-S8-Phe-Trp-Gln-NH2, Ac-PL3-Asp-Ala-B5-Asp-Asp-Ala-Ala-3C1F-Val-S8-Phe-Trp-Gln-NH2; stapled peptide composition) [I-307]
12 | 4.72 µM | Ac-[αAllylPro]DA[B5(4)]DDAA[Ala(2-furyl)]V[S8]FWQ-NH2 (staple 1-4, 4-11; not fully specified; printed as Ac-PL3-Asp-Ala-B5-Asp-Asp-Ala-Ala-2FurA-Val-S8-Phe-Trp-Gln-NH2, Ac-PL3-Asp-Ala-B5-Asp-Asp-Ala-Ala-2FurA-Val-S8-Phe-Trp-Gln-NH2; stapled peptide composition) [I-327]

From patent US20240116985A1 (published 2024)
